Data from patent US20220411477A1 (MONASH UNIVERSITY, published 2022).
Numbering of substitutions follows the chain as printed. In names and notes the source's numbering stands. Values belong to the binder of their own block, whether it stands above or below them.

Biological target: T1, AMH-specific type II receptor, AMHR2 (UniProt Q16671 18-573, limits assumed)
T1 sequence (looked up): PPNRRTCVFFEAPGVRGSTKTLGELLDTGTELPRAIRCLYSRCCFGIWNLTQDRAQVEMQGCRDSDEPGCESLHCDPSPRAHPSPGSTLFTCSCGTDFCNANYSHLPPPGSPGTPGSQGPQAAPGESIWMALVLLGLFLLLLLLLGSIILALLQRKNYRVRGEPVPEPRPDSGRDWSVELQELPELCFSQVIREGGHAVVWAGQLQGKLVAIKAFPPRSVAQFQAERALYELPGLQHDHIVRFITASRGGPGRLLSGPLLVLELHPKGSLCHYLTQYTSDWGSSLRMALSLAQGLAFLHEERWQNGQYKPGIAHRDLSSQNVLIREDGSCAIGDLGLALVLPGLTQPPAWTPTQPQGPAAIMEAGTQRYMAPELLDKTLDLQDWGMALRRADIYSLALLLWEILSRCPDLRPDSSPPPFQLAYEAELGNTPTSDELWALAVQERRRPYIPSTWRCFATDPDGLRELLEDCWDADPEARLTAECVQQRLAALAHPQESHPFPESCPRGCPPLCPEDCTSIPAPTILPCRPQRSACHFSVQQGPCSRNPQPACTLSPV
Assay: cell-based or functional assay

Maximal response relative to wild-type (%): ~5%
B1: hAMH mutant A546M (ligand)
chain 1: HHHHHHPAVGTSGLIFREDLDWPPGSPQEPLCLVALGGDSNGSSSPLRVVGALSAYEQAFLGAVQRARWGPRDLATFGVCNTGDRQAALPSLRRLGAWLQDPGGQRLVVLHLEEVTWEPTPSLRFQEPPPGGAGPPELALLVLYPGPGPEVTVTRAGLPGAQSLCPSRDTRYLVLAVDRPAGAWRGSGLALTLQPRGEDSRLSTARLQALLFGDDHRCFTRMTPALLLLPRSEPAPLPAHGQLDTVPFPPPRPSAELEESPPSADPFLETLTRLVRALRVPPARASAPRLALDPDALAGFPQGLVNLSDPAALERLLDGEEPLLLLLRPTAATTGDPAPLHDPTSAPWATALARRVAAELQAAAAELRSLPGLPPATAPLLARLLALCPGGPGGLGDPLRALLLLKALQGLRVEWRGRDPRGPGISSRKKR
chain 2: SVSSSAGATAADGPCALRELSVDLRAERSVLIPETYQANNCQGVCGWPQSDRNPRYGNHVVLLLKMQARGAALARPPCCVPTAYAGKLLISLSEERISMHHVPNMVATECGCR

AMH activity relative to wild type (%): 250% | EC50 in COV434 BRE-Luc assay: ~2.8 ng/mL | Potency relative to ‘wild-type’: ~2 fold more potent
B2: hAMH+SCUT+RSA G533A mutant (ligand)
chain 1: B1 chain 1
chain 2: B1 chain 2 with G86A, M99A

AMH activity relative to wild type (%): 100% | EC50 in COV434 BRE-Luc assay: ~6 ng/mL
B3: hAMH+SCUT+RSA H548K mutant (ligand)
chain 1: B1 chain 1
chain 2: B1 chain 2 with M99A, H101K
